Assay results taken from PMC8329185 (2021).

Target: His6-DNAJB1 (human, UniProt P25685 1-340)
Assay: SPR

His6-DNAJB1, sequence (P25685 whole entry): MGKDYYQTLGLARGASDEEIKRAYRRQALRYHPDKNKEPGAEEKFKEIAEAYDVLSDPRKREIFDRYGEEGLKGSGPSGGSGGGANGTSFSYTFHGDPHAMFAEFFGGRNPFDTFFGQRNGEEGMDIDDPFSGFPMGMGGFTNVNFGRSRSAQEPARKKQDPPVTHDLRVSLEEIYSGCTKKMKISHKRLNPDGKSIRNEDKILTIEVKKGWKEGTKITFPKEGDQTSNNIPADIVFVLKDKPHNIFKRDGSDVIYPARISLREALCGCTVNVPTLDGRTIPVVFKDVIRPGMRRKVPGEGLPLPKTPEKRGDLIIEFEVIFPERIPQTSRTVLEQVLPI

- koff: 0.00014 s⁻¹
B1: GST-TrnSR (WT, without mCherry) (natural protein)
chain: MEGAKPTLQLVYQAVQALYHDPDPSGKERASFWLGELQRSVHAWEISDQLLQIRQDVESCYFAAQTMKMKIQTSFYELPTDSHASLRDSLLTHIQNLKDLSPVIVTQLALAIADLALQMPSWKGCVQTLVEKYSNDVTSLPFLLEILTVLPEEVHSRSLRIGANRRTEIIEDLAFYSSTVVSLLMTCVEKAGTDEKMLMKVFRCLGSWFNLGVLDSNFMANNKLLALLFEVLQQDKTSSNLHEAASDCVCSALYAIENVETNLPLAMQLFQGVLTLETAYHMAVAREDLDKVLNYCRIFTELCETFLEKIVCTPGQGLGDLRTLELLLICAGHPQYEVVEISFNFWYRLGEHLYKTNDEVIHGIFKAYIQRLLHALARHCQLEPDHEGVPEETDDFGEFRMRVSDLVKDLIFLIGSMECFAQLYSTLKEGNPPWEVTEAVLFIMAAIAKSVDPENNPTLVEVLEGVVRLPETVHTAVRYTSIELVGEMSEVVDRNPQFLDPVLGYLMKGLCEKPLASAAAKAIHNICSVCRDHMAQHFNGLLEIARSLDSFLLSPEAAVGLLKGTALVLARLPLDKITECLSELCSVQVMALKKLLSQEPSNGISSDPTVFLDRLAVIFRHTNPIVENGQTHPCQKVIQEIWPVLSETLNKHRADNRIVERCCRCLRFAVRCVGKGSAALLQPLVTQMVNVYHVHQHSCFLYLGSILVDEYGMEEGCRQGLLDMLQALCIPTFQLLEQQNGLQNHPDTVDDLFRLATRFIQRSPVTLLRSQVVIPILQWAIASTTLDHRDANCSVMRFLRDLIHTGVANDHEEDFELRKELIGQVMNQLGQQLVSQLLHTCCFCLPPYTLPDVAEVLWEIMQVDRPTFCRWLENSLKGLPKETTVGAVTVTHKQLTDFHKQVTSAEECKQVCWALRDFTRLFR
